Here are results for 72 sequences from the supplement of paper PMC10567573.

The nature of the data set: protein stability index of a GFP-peptide fusion (GPS, HEK-293T) (PSI 1-6); higher = more stable.
Setting [1] is: treatment: DMSO, c terminus: a fixed tail appended.
[2] abbreviates: treatment: MLN4924 1 uM, 8 h, c terminus: a fixed tail appended.

± gives the standard deviation.
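Note: 24-mer peptide tiles fused after GFP, lentivirally expressed, FACS-sorted into six equal bins by GFP/DsRed ratio, decoded by Illumina sequencing, PSI is the read-weighted mean bin number.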

On to RYHFATGVWHQMGTDGYMPRELAS [KLHDC10], for which the protein stability index runs as follows: under setting [1], 2.6 ± 0.2; under setting [2], 2.41 ± 0.24.

Consider RYILPVYGICREPVGLVMEYMETG [RIPK4], for which the protein stability index by setting is: under setting [1], 2.12 ± 0.62; under setting [2], 2.69 ± 0.55.

Regarding RYLTFFHNYNILIATLRVALPSVM [MCOLN1], the protein stability index came out at 3.31 ± 0.65 under setting [1] and 3.05 ± 0.54 under setting [2].

On to RYPELDTPKLDCFLSGMEAAPRTL [TBX6], for which the protein stability index by setting is: under setting [1], 3.5 ± 0.27; under setting [2], 3.58 ± 0.2.

With SAENIPGCSSSGSCSQGSGILHYA [CRY1], the protein stability index reads like this: under setting [1], 2.9 ± 0.33; under setting [2], 2.93 ± 0.2.

Turning to SAEYVGHLRATEKMKTRELHRESS [HDAC6], the protein stability index reads like this: under setting [1], 4.62 ± 0.36; under setting [2], 4.47 ± 0.4.

SARDASPTPSTDAEYPANGSGADR [NCK2]: the protein stability index is, setting by setting: under setting [1], 5.51 ± 0.17; under setting [2], 5.53 ± 0.25.

SARYVLPDEAARARLLQEGGGGVA [DUSP5]: the protein stability index came to 4.33 ± 0.19 under setting [1] and 4.13 ± 0.17 under setting [2].

Consider SDFEWLKNELERDSKIVVPPLPGK [SNX12], for which the protein stability index worked out at 4.07 ± 0.32 under setting [1] and 4.13 ± 0.14 under setting [2].

Sequence SDFKTDKEGGQAGSGQRVPALEEA [ELOA2] returned a protein stability index under setting [1] of 5.61 ± 0.18 and a protein stability index under setting [2] of 5.49 ± 0.22.

Regarding SDLNEVPVKELAALPKATILDLSC [LRRC59], the protein stability index reads like this: under setting [1], 3.96 ± 0.052; under setting [2], 4.01 ± 0.3.

For SDSMHIEDVEAVQKLQDVLHEALQ [ESRRG], the protein stability index was found to be 3.42 ± 0.29 under setting [1] and 3.54 ± 0.16 under setting [2].

In turn, SDYPSPDISPPIFRRGEKLRVISD [SLA] came in with a protein stability index under setting [1] of 3.88 ± 0.3 and a protein stability index under setting [2] of 4.2 ± 0.25.

Regarding SELIVHIFSFLPAPDRLRASASCS [FBXO33], the protein stability index was 2.76 ± 0.14 under setting [1] and 1.94 ± 0.35 under setting [2].

With SEMECQNQEYKMLLDIKTRLEQEI [KRT13], the protein stability index by setting is: under setting [1], 3.72 ± 0.26; under setting [2], 3.82 ± 0.32.

As to SENLEEETENIIAANHWVLPAAEF [TRIP13], the protein stability index by setting is: under setting [1], 4.8 ± 0.26; under setting [2], 4.61 ± 0.17.

In the case of SFQIVLDPMLDFYSDKNAKLTKES [TENT5D], the protein stability index runs as follows: under setting [1], 2.91 ± 0.43; under setting [2], 3.09 ± 0.37.

With SGHALRILIVDWDVHHGNGTQHMF [HDAC6], the protein stability index is, setting by setting: under setting [1], 2.74 ± 0.44; under setting [2], 3.02 ± 0.75.

As for SGKWTFQRDSKRWSRLEEFDVFSP [DLC1], the protein stability index is, setting by setting: under setting [1], 2.46 ± 0.28; under setting [2], 2.53 ± 0.34.

With SGLLEELNAEAGHLDPGFLASDKT [C18orf25], the protein stability index runs as follows: under setting [1], 4.96 ± 0.18; under setting [2], 4.76 ± 0.12.

As for SHGANVNHTTVTNSTPLRAACFDG [FEM1B], the protein stability index runs as follows: under setting [1], 4.02 ± 0.14; under setting [2], 4.25 ± 0.086.

Sequence SILKAMGKTKKDYQEASNLEQFVT [NECAB1] displayed a protein stability index under setting [1] of 2.89 ± 0.41 and a protein stability index under setting [2] of 3.04 ± 0.33.

As for SIVIFCLETLPEFRDEKDYPASTS [KCNA3], the protein stability index is, setting by setting: under setting [1], 2.4 ± 0.54; under setting [2], 2.19 ± 0.45.

Consider SIYLVGGYSWSMGAYKSSTICYCP [KLHL14], for which the protein stability index is, setting by setting: under setting [1], 2.87 ± 0.46; under setting [2], 2.53 ± 0.87.

For SKVVVPPLPGKAFLRQLPFRGDDG [SNX3], the protein stability index reads like this: under setting [1], 3.45 ± 0.17; under setting [2], 3.56 ± 0.21.

On to SLPETFGDFWRMIWEQRSATVVMM [PTPRD], for which the protein stability index is, setting by setting: under setting [1], 2.69 ± 0.7; under setting [2], 2.43 ± 0.83.

Consider SLQESVEDSLATVKVVLIPVGQEI [IQUB], for which the protein stability index runs as follows: under setting [1], 2.49 ± 0.53; under setting [2], 2.24 ± 0.46.

The sequence SLYENDCIFDKFECVWNGSDSVIM [PPP2R2B] registered a protein stability index under setting [1] of 2.06 ± 0.71 and a protein stability index under setting [2] of 2.07 ± 0.37.

Consider SMISMGLFSIAPLIYGSMEMFPAA [JAGN1], for which the protein stability index under setting [1] was found to be 3.08 ± 0.29 and the protein stability index under setting [2] worked out at 3.23 ± 0.32.

For SMQYNGSYFDRGAKGGSRLCTPEG [DFFB], the protein stability index by setting is: under setting [1], 2.98 ± 0.14; under setting [2], 3.35 ± 0.35.

The sequence SMRLLESKKGLSFFAFEHSEEYQQ [TCF25] had a protein stability index under setting [1] of 3.35 ± 0.12 and a protein stability index under setting [2] of 3.3 ± 0.16.

On to SNLCCFIPGKVIDEIYRVLRYVNS [FBXO28], for which the protein stability index runs as follows: under setting [1], 2 ± 0.66; under setting [2], 2.38 ± 0.26.

As for SNLIRHQRIHAAERLCMGVDCTEI [ZNF263], the protein stability index amounted to 3.17 ± 0.2 under setting [1] and 3.18 ± 0.21 under setting [2].

Consider SPTSGKFRRGSGSACSLLCCCGRD [MCOLN1], for which the protein stability index stood at 3.27 ± 0.15 under setting [1] and 3.56 ± 0.41 under setting [2].

For the sequence SQWKDPALSQLICFCRESRYMDQW [GADD45A], the protein stability index turned out to be 2.19 ± 0.19 under setting [1] and 2.31 ± 0.23 under setting [2].

In the case of SRALALFDIQKIMQEKNPVHVIGV [ZNF8], the protein stability index is, setting by setting: under setting [1], 2.52 ± 0.27; under setting [2], 1.89 ± 0.39.

Take SRFRKAYKPEQPLVRLRGGAYIGE [LOXL2]: the protein stability index stood at 3.16 ± 0.26 under setting [1] and 2.98 ± 0.39 under setting [2].

With SRGELIPISPSTEVGGSGIGTPPS [MYBL2], the protein stability index was 4.74 ± 0.28 under setting [1] and 4.8 ± 0.15 under setting [2].

As for SRGSPVRVKREFEPASAREAPASV [USP39], the protein stability index came to 4.47 ± 0.32 under setting [1] and 4.49 ± 0.35 under setting [2].

SRNRDPGRLILSTIRLRPRQVLCE [PWWP2B]: the protein stability index under setting [1] was determined as 2.68 ± 0.18 and the protein stability index under setting [2] worked out at 3.04 ± 0.25.

For SRPSAPFTEASMMMSLTKLADKEL [ESR2], the protein stability index by setting is: under setting [1], 3.97 ± 0.4; under setting [2], 3.97 ± 0.068.

SRSVEDDKEGHLVCRIGDWLQERY [CLK3]: the protein stability index reads like this: under setting [1], 3.41 ± 0.23; under setting [2], 3.45 ± 0.2.

Take SSARIPKCPWMEGGEMSPQVETSI [INTS4]: the protein stability index by setting is: under setting [1], 3.9 ± 0.14; under setting [2], 4.12 ± 0.1.

As to SSDRSRDSSHERTESQLTPCIRNV [BTBD10], the protein stability index is, setting by setting: under setting [1], 5.06 ± 0.065; under setting [2], 5 ± 0.2.

For the sequence SSEHFEKLHEIFRGLHEDLQGVPE [VTI1B], the protein stability index reads like this: under setting [1], 4.11 ± 0.32; under setting [2], 3.97 ± 0.12.

For the sequence SSGEPVDYNVDIGIPLDGETEEL [MYOZ1], the protein stability index is 5.5 ± 0.21 (treatment: DMSO, c terminus: native) and 5.23 ± 0.17 (treatment: MLN4924 1 uM, 8 h, c terminus: native).

With SSQLAQMQCLISNVEAQLSEIRCD [KRT36], the protein stability index is 3 ± 0.075 under setting [1] and 3.1 ± 0.31 under setting [2].

In the case of SSRPENIPPKEFHFRHPKRSVSLS [BNIP3L], the protein stability index under setting [1] was found to be 4.29 ± 0.35 and the protein stability index under setting [2] worked out at 4.24 ± 0.051.

Consider SSSYSVSSPRSVDSYSSTQHVPEE [ATF6], for which the protein stability index runs as follows: under setting [1], 5.16 ± 0.14; under setting [2], 4.99 ± 0.15.

Consider SSVCVQGRCIHAGCDRIIGSKKKF [ADAMTS4], for which the protein stability index reads like this: under setting [1], 3.57 ± 0.26; under setting [2], 3.22 ± 0.38.

As for SSVSDVKFSHSGRYMLTRDYLTVK [PPP2R2C], the protein stability index runs as follows: under setting [1], 2.88 ± 0.24; under setting [2], 2.87 ± 0.39.

Take STDTAVTNEWEKRLSTSPVRLAAR [EPB41L3]: the protein stability index runs as follows: under setting [1], 4.3 ± 0.26; under setting [2], 4.44 ± 0.18.

As for STFSTNYRSLGSVQAPSYGARPVS [KRT18], the protein stability index by setting is: under setting [1], 3.53 ± 0.16; under setting [2], 3.61 ± 0.2.

In the case of STLLGEMDLLTQSLGVDTLPPPDP [APBB1IP], the protein stability index is, setting by setting: under setting [1], 3.79 ± 0.42; under setting [2], 4.03 ± 0.41.

For STLPRSGSSGGQQPSGMKEGVKRY [CHCHD6], the protein stability index reads like this: under setting [1], 4.49 ± 0.35; under setting [2], 4.8 ± 0.29.

For STLPSLREEEEQVRAHAPRGNAPP [KCNG1], the protein stability index by setting is: under setting [1], 4.43 ± 0.23; under setting [2], 4.91 ± 0.35.

As for STPLSPAYISLVEEEDQHMKLSLG [KLHL13], the protein stability index was 4.27 ± 0.16 under setting [1] and 4.28 ± 0.19 under setting [2].

Regarding STPRPSITPTKKIELDRTIMPDGT [C2CD2L], the protein stability index amounted to 4.76 ± 0.24 under setting [1] and 4.87 ± 0.17 under setting [2].

With STVKDCATIFALSTMTSSVQIYNL [ATL3], the protein stability index is 3.08 ± 0.68 under setting [1] and 3.25 ± 0.59 under setting [2].

For the sequence SVHVPGPHAMTIQELVDYVNARQK [PTPN9], the protein stability index was 3.49 ± 0.34 under setting [1] and 3.47 ± 0.28 under setting [2].

For SVIVLDINDNAPTFQSSVLRVGIP [PCDHGC5], the protein stability index came out at 2.18 ± 0.11 under setting [1] and 2.21 ± 0.081 under setting [2].

In the case of SVRRSESWARPRPDEERPLRRPRP [RASAL3], the protein stability index reads like this: under setting [1], 4.92 ± 0.096; under setting [2], 4.68 ± 0.29.

Turning to SWACAFTNALTHTVAMSTLNFCGP [OR3A1], the protein stability index reads like this: under setting [1], 3.47 ± 0.13; under setting [2], 3.15 ± 0.049.

Take SWRVGVVRVRQDSGAEGHSHSCYH [TRIM35]: the protein stability index is, setting by setting: under setting [1], 3.02 ± 0.41; under setting [2], 3.2 ± 0.32.

For SWSQYEMPEFSSDSTMRILSNLVQ [RTP4], the protein stability index worked out at 2.48 ± 0.24 under setting [1] and 2.59 ± 0.3 under setting [2].

As for SWVDDTPFNKVQSARFWIPGEPNN [CD207], the protein stability index under setting [1] turned out to be 2.44 ± 0.15 and the protein stability index under setting [2] stood at 2.51 ± 0.45.

Regarding SYFDMLYPEDSSWAAKAPGASSRE [SPDEF], the protein stability index by setting is: under setting [1], 3.56 ± 0.13; under setting [2], 3.52 ± 0.22.

Regarding SYPNPNEDKCPGNYTNPLKVQTVI [TMEM192], the protein stability index stood at 3.17 ± 0.36 under setting [1] and 3.29 ± 0.22 under setting [2].

In the case of TAGLLREQVAQLKQKVMTHVSNGC [JUNB], the protein stability index runs as follows: under setting [1], 3.25 ± 0.2; under setting [2], 3.25 ± 0.32.

On to TAKDFIVGKSLTILGRTFFIYDCD [EFHC1], for which the protein stability index runs as follows: under setting [1], 2.93 ± 0.49; under setting [2], 2.28 ± 0.34.

In the case of TALGGQCVDRQEVAEITKQLPPVV [TCAP], the protein stability index was 4.07 ± 0.25 under setting [1] and 4.27 ± 0.13 under setting [2].

Regarding TAPLPMPEGPEPAAPGKQPGRGHT [ELOA2], the protein stability index was 5.53 ± 0.15 under setting [1] and 5.27 ± 0.2 under setting [2].
